Literature values as cited in PMC5681435, “Differential Regulation of G1 CDK Complexes by the Hsp90-Cdc37 Chaperone System” (Cell Reports, 2017).

Target: B-Raf V600E kinase domain (Homo sapiens) (UniProt P15056)
Assay: ITC
Conditions: cited from earlier work

Cdc37, sequence (Q16543 2-378): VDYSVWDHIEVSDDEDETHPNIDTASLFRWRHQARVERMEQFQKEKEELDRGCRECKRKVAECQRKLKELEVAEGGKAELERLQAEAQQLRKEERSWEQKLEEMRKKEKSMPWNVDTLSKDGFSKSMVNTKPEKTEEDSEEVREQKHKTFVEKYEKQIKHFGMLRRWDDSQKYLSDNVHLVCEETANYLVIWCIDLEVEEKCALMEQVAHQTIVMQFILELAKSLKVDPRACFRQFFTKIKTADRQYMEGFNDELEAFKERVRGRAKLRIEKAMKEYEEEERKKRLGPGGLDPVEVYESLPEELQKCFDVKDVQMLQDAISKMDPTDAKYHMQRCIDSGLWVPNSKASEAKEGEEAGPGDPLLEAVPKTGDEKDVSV
B-Raf V600E kinase domain (Homo sapiens), sequence (P15056 457-717 V600E): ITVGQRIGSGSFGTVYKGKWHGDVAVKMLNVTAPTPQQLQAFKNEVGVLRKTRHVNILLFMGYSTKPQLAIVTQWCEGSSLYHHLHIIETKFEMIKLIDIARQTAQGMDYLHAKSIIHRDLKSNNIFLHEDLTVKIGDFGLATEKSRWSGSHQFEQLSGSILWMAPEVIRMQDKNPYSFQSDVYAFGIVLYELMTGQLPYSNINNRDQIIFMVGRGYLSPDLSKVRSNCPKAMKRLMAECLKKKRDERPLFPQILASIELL

Cdc37 (from UniProt Q16543)
Kd: 0.2 µM
